In article PMC11869522, “Competitive displacement of lipoprotein lipase from heparan sulfate is orchestrated by a disordered acidic cluster in GPIHBP1” (Journal of Lipid Research, 2025):

Test system: hLPL bound to immobilized heparan sulfate
Assay: GPIHBP1-mediated extraction of LPL from HSPGs (SPR, immobilized heparin dp4 fragments)
Assay type: binding, human
Description: To mimic electrostatic conditions found in the sub-endothelial spaces where surface-bound heparan-sulfate proteoglycans (HSPGs) are abundant, we designed a surrogate sensor surface using a streptavidin-coated CM5 sensor chip to capture high densities of biotinylated synthetic heparin dp4 fragments ([28], [29]). The reference surface was loaded with a neutral and non-sulfated fragment (M09 S00 from Iduron), while the active surface was loaded with a negatively charged fragment (M09 S08a from Iduron) containing N- and O-6-linked sulfations on each of the […] glucosamine residues in the DP4 fragment. Only the highly sulfated oligosaccharide bound LPL, and those interactions were transient with high off-rates. Despite the very transient nature of this binding, we created a stable reservoir of hLPL on the sensor surface by combining the fast kinetics of polyelectrolyte interactions with severe mass transport limitation—the latter phenomenon impedes LPL escape from the surface due to the fast rebinding that is favored by the high densities of immobilized heparin fragments (300 fmol/mm^2). For each experiment, 12.5 nM hLPL was loaded for 100 s at a flow rate of 20 μl/min in 10 mM Hepes (pH 7.4), 150 mM NaCl, 4 mM CaCl2, 10% (vol/vol) glycerol, 0.05% (vol/vol) surfactant P20, 1 mg/ml defatted BSA, […], and 0.05% (wt/vol) NaN3.
To compare the ability of GPIHBP1^1–131 and its charge variants to bind and extract hLPL from this dynamic reservoir, we injected twofold serial dilutions of 1.25–200 nM GPIHBP1^1–131; 1.25–200 nM GPIHBP1^Cluster1-neutral; GPIHBP1^Cluster2-neutral; 1.25–200 nM GPIHBP1^34–131; 0.1–1.6 μM GPIHBP1^1–33 with Tyr^18–SO4; or 1.25–200 nM GPIHBP1^34–131 in the presence of 1 μM sulfated GPIHBP1^1–33 for 250 s at 20 μl/min in 10 mM Hepes (pH 7.4), 150 mM NaCl, 4 mM CaCl2, 10% (vol/vol) glycerol, 0.05% (vol/vol) surfactant P20, 0.2 mg/ml fatty acid-free BSA, and 0.05% (wt/vol) NaN3. At the end of each cycle, two consecutive injections of 10 μl 3 M guanidinium chloride regenerated the chip.
GPIHBP1’s ability to displace LPL from its HSPG-bound state in the sub-endothelial spaces is essential for the trans-endothelial trafficking of LPL to the luminal surface of capillary cells ([29]). The importance of the acidic tail in this process is supported by solid evidence from surrogate in vitro models and in vivo studies in gene-edited mice ([28], [29]). It was therefore important to determine the relative impact of the two charge-clusters in GPIHBP1 on their ability to disrupt LPL•HSPG interactions. To gain this insight, we measured the ability of different GPIHBP1 charge variants to displace hLPL from a SPR sensor chip surface coupled with a high density of immobilized small heparin-like fragments ([28]). […]

B1: GPIHBP1^Cluster1-neutral: GPIHBP1 mutant with all Glu/Asp replaced by Gln/Asn at residues 1–17 (protein)
chain: QTQQQQQQQNQNHGPNNYDEEDEDEVEEEETNRLPGGGSRVLLRCYTCKSLPRDERCNLTQNCSHGQTCTTLIAHGNTESGLLTTHSTWCTDSCQPITKTVEGTQVTMTCCQSSLCNVPPWQSSRVQDPTG
modifications: Tyr18 sulfation present in less than 40%; one bi-antennary N-linked glycosylation; left off: uPAR domain III, N-terminal, cleaved
- reduction in hLPL levels on the sensor surface after GPIHBP1 injections (ΔLPL, displaced LPL) (serial twofold dilutions 12.5–200 nM, 250 s at 20 μl/min, pH 7.4, mean ± SD, n = 3): 35%

B2: GPIHBP1^Cluster2-neutral: GPIHBP1 mutant with all Glu/Asp replaced by Gln/Asn at residues 19–30 (protein)
chain: QTQQEEEEEDEDHGPDDYNQQNQNQVQQQQTNRLPGGGSRVLLRCYTCKSLPRDERCNLTQNCSHGQTCTTLIAHGNTESGLLTTHSTWCTDSCQPITKTVEGTQVTMTCCQSSLCNVPPWQSSRVQDPTG
modifications: Tyr18 sulfation absent; one bi-antennary N-linked glycosylation; left off: uPAR domain III, N-terminal, cleaved
- competitive displacement of HSPG-bound hLPL (in words) (12.5–200 nM GPIHBP1 proteins, 0.1–1.6 μM sulfated GPIHBP1^1–33, or GPIHBP1^34–131 with 1 μM sulfated GPIHBP1^1–33): neither dislodged any LPL from the surface
